The record followed here is patent publication US7223537B2, “Detection of molecular interactions by reporter subunit complementation” (The Board of Trustees of the Leland Stanford Junior …, priority 1997, dated 2007).

Test [1] addresses T1, human EGF receptor (Homo sapiens, UniProt P00533).
T1 construct: transmembrane domains of the human EGF receptor (amino acids 1–655) was amplified; expressed in transfected cells; host or cells: C2F3 mouse myoblasts, retrovirally transduced (pWZL-Δα-neo, pWZL-Δω-hygro), selected clone
Briefly: EGF receptor dimerization monitored by β-gal complementation (FACS) in C2F3 mouse myoblasts expressing chimeric receptors. The format is cell-based. The text has this: (§1) Construction of chimeric receptors. The weakly complementing Δα and Δω deletion mutants of β-gal were each linked to a polypeptide sequence containing the extracellular and transmembrane domains of the human EGF receptor to form chimeric receptor molecules. The chimeric receptors lacked the cytoplasmic domain, and attendant tyrosine kinase activity, of the native receptor. The procedure was as follows. The sequence coding for the extracellular and transmembrane domains of the human EGF receptor (amino acids 1–655) was amplified by polymerase chain reaction (PCR) using primers that incorporated an NcoI site at the 5′ end and an XhoI site at the 3′ end of the PCR product. Although this fragment retains threonine 654, which is a site of protein kinase C (PKC) phosphorylation, arginines 656 and 657 are removed, destroying the consensus PKC recognition sequence. The amino acid sequence beginning with threonine 654 is thr-leu-glu-ser-met, with the met residue being the beginning of the β-gal sequence. The glu and ser codons are generated by the junction sequence and are not native to either EGF or β-gal.
(§2) DNAs encoding the chimeric receptors were inserted into a retroviral vector also encoding a selectable marker. For the construct containing the EGF receptor-Δα fusion, the selectable marker was the neo gene, encoding G418 resistance; while the EGF receptor-Δω fusion specified hygromycin resistance (FIG. 1B). Accordingly, the EGF receptor PCR product was digested and cloned into the NcoI and XhoI sites of the pWZL-Δα and pWZL-Δω vectors. The pWZL-Δα-neo and pWZL-Δω-hygro plasmids were constructed by cloning the lacZ Δα and Δω deletion mutants into pWZL-neo and pWZL-hygro, respectively. Mohler et al., supra; and Rossi et al. (1997) Proc. Natl. Acad. Sci. USA 94:8405–8410. Plasmids were transfected into φNX cells using Lipofectamine (Life Technologies), and virus-containing supernatant was harvested 48–72 hours later. C2F3 mouse myoblasts (Rastinejad et al. (1993) Cell 72:903–917) maintained in DME with 20% fetal bovine serum (FBS) in 10% CO2, were infected by overnight incubation in the viral supernatant. Cells containing both constructs were selected in 1 mg/ml G418 plus 1 mg/ml hygromycin, and were maintained in 400 μg/ml of each antibiotic.
(§3) EGF treatment and FACS analysis Cells were treated with mouse salivary gland EGF (Sigma) at 100 ng/ml and in some experiments were treated with tyrphostin AG1478 (Calbiochem) at 100 nM. Following all treatments, cells were rinsed with phosphate buffered saline (PBS), trypsinized, and resuspended in PBS+5% FBS. Fluorescein di-β-D-galactopyranoside (FDG; Molecular Probes) was loaded into the cells by hypotonic shock as described. Fiering et al. (1991) Cytometry 12:291–301 and Nolan et al. (1988) Proc. Natl. Acad. Sci. USA 85:2603–2607. Cells were kept on ice until analysis on the cell sorter, which was conducted 1 to 2 hours after trypsinization.
(§4) The chimeric receptor was detected by immunofluorescence using a monoclonal mouse anti-human EGF receptor antibody diluted 1:100 (clone EGFR1, Dako) and either phycoerythrin-labeled horse anti-mouse IgG (Vector) or fluorescein-labeled goat anti-mouse IgG (Cappel) diluted 1:100. Cells were trypsinized and stained in PBS+5% FBS. For each sample, FACS analysis data was collected for 5000 cells. Cells were cloned on a Becton-Dickinson FACS Vantage and analyzed on a Becton-Dickinson FACS can at the Stanford Shared FACS Facility. Data analysis was facilitated by FlowJo software (Tree Star, Inc.). Data shown here as FACS profiles were adjusted for autofluorescence using autofluorescence compensation. Alberti et al. (1987) Cytometry 8:114–119. Mean fluorescence data were adjusted for autofluorescence and for endogenous mammalian β-gal activity by subtracting the mean fluorescence of untransduced cells loaded with FDG substrate.

Test [2] has as its system T2, human EGF receptor.
T2 construct: transmembrane domains of the human EGF receptor (amino acids 1–655) was amplified; expressed in transfected cells; host or cells: C2F3 mouse myoblasts, retrovirally transduced (pWZL-Δα-neo, pWZL-Δω-hygro), selected clone
The test is described as above. It counts as cell-based.
Excerpt: as §1, §2, §3, §4

T2 sequence (Q01279 25-1210): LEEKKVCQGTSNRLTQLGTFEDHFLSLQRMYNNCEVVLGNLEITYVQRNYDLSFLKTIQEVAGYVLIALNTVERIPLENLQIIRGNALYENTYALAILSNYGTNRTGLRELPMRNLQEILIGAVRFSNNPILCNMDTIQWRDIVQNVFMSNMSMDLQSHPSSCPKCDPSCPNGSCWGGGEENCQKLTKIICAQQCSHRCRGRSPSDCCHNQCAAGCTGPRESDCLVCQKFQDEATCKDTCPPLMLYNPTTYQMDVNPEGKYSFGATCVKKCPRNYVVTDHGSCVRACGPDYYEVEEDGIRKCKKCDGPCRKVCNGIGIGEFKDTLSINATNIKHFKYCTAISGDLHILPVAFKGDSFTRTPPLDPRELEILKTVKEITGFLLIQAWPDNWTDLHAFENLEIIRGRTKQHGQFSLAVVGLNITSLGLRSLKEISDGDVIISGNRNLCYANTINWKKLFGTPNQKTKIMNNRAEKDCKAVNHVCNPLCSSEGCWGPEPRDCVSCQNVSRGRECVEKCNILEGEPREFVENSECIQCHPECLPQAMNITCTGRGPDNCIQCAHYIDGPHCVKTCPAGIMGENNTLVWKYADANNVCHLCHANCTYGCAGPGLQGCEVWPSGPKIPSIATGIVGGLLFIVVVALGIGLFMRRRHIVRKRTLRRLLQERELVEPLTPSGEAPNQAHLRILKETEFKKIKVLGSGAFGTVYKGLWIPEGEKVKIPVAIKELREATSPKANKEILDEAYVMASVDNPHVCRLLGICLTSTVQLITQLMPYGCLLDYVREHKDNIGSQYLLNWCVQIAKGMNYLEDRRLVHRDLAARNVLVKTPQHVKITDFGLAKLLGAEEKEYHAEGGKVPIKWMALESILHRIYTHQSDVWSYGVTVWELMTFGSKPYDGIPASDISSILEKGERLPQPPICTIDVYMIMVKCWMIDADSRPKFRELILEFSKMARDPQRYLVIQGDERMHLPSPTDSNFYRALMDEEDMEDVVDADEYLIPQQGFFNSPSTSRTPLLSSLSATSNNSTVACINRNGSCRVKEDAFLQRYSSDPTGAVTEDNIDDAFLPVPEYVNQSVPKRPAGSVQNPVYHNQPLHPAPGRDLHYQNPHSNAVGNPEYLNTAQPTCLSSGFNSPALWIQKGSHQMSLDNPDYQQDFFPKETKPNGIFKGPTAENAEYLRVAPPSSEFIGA

Take “heparin-binding EGF-like growth factor: EGF-like growth factor that binds and activates the EGF receptor”: the “dimerization of chimeric EGF receptor following stimulation with EGF-like growth factor” value with human EGF receptor [1] was “Dimerization was also observed”.
On to “TGF-α: EGF-like growth factor that binds and activates the EGF receptor”, for which the “dimerization of chimeric EGF receptor following stimulation with EGF-like growth factor” value with human EGF receptor [1] was “Dimerization was also observed”.
Same read-out and setting: with “betacellulin: EGF-like growth factor that binds and activates the EGF receptor” the entry was “Dimerization was also observed”.
For `COc1cc2ncnc(Nc3cccc(Cl)c3)c2cc1OC` [tyrphostin AG1478, reference compound], the “β-gal activity of cells given tyrphostin and EGF versus EGF alone” value in the test on human EGF receptor [2] (100 nM tyrphostin AG1478 + 100 ng/ml EGF, treatment times of up to 6 hours, FIG. 9B) is reported as “greater β-gal activity than cells that received EGF alone”. Also, the “difference in EGF receptor dimerization between EGF and EGF+tyrphostin treated cells” value with human EGF receptor [2] (by 8 hours of treatment) is reported as “no difference”. Further, the “effect of repeated administration of tyrphostin on the increased β-gal activity” value with human EGF receptor [2] (tyrphostin every four hours) was “did not further prolong the increased β-gal activity”.
On to EGF: mouse salivary gland EGF (Sigma), for which the “time at which dimerization peaked” value in the test with human EGF receptor [1] (100 ng/ml EGF for 0 to 24 hours, FIG. 8) lay in the range of 2 to 4 h. For the same molecule, in the test with human EGF receptor [1] (100 ng/ml EGF for two hours, FIG. 7E), the “increase in β-gal activity (chimeric receptor dimerization) in selected clone” value is on record as “several-fold increase”. In addition, the “shortest EGF treatment at which dimerization could be detected” value with human EGF receptor [1] (100 ng/ml EGF, mean fluorescence, FIG. 7F) is listed as “one”. Besides, in the test with human EGF receptor [1] (100 ng/ml EGF, over the period that dimerization decreased, FIG. 8), the “amount of chimeric receptor on the cell surface (immunofluorescence, FACS)” value is “remained essentially constant”. In addition, in the test with human EGF receptor [1] (during the decline in dimerization, EGF still present), the “response (dimerization) to a second EGF treatment” value was “minimal”.
